Source: patent US20030175830, “Reagents and methods for the screening of compounds useful in the treatment of neurological diseases” (Case Western Reserve University, published 2003)

Target: T1, Pet-1 (Rattus norvegicus, UniProt O70132 SEQ:1-340)
T1 sequence: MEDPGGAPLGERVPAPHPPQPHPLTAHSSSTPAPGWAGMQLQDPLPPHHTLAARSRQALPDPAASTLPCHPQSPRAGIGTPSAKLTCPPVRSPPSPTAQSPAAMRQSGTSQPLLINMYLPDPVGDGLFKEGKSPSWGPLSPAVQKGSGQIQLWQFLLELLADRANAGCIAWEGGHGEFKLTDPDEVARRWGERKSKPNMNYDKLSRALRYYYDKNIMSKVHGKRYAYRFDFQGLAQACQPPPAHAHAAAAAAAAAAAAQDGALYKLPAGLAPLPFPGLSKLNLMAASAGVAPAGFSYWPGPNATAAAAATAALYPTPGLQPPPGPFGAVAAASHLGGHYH
Experiment: competition; molar excess unlabeled PEA3 eliminated complexes
Details: tags: bacterially expressed; label: 32P

B1: PEA3 site oligonucleotide (dsDNA)
DNA 1: GATCCAGGAAGTGAC
DNA 2: GTCACTTCCTGGATC
B1: binds.
